Reference: patent US20160136234A1

Key:
Assay in all cases: cell-based or functional assay
Rsk3 (h) (human) = Rsk3 (h) (human) (UniProt Q15349)
MKK6 (h) (human) = MKK6 (h) (human) (UniProt P52564)
PASK (h) (human) = PASK (h) (human) (UniProt Q96RG2)
EGFR(T790M) (h) (human) = EGFR(T790M) (h) (human) (UniProt P00533)
PKA (h) (human) = PKA (h) (human) (UniProt P17612)
Abl(T315I) (h) (human) = Abl(T315I) (h) (human) (UniProt P00519)
SGK3 (h) (human) = target: T1, SGK3 (h) (human) (UniProt Q96BR1)
T1 sequence (looked up): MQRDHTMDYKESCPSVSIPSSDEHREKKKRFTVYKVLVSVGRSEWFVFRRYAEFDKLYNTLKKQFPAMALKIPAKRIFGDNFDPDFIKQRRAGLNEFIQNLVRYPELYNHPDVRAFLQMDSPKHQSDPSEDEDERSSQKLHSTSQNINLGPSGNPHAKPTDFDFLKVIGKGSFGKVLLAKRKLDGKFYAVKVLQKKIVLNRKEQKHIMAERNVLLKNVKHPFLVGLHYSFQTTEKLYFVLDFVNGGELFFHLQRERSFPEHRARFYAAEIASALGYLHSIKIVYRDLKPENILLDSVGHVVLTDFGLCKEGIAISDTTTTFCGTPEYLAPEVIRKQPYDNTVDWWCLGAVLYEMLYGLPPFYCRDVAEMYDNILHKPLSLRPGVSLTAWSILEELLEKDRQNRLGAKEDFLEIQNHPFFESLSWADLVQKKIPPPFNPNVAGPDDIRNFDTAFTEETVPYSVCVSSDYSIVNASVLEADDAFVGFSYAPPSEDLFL

AMPKα1 (h) (human) = AMPKα1 (h) (human) (UniProt Q13131)
cKit(D816V) (h) (human) = cKit(D816V) (h) (human) (UniProt P10721)
cKit(D816V) (h) (human), sequence (P10721 544-976 D816V): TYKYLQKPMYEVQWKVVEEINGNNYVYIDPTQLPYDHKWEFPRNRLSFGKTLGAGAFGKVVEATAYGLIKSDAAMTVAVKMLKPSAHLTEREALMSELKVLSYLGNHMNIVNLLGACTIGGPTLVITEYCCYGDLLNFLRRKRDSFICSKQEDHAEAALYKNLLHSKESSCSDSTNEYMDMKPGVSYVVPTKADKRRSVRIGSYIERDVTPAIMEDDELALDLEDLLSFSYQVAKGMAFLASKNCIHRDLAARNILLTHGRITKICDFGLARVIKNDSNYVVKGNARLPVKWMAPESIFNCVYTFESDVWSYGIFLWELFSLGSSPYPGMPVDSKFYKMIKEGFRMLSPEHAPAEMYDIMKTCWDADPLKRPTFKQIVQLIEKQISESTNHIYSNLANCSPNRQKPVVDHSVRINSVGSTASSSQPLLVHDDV

CaMKIV (h) (human) = CaMKIV (h) (human) (UniProt Q16566)
DCAMKL2 (h) (human) = target: T2, DCAMKL2 (h) (human) (UniProt Q8N568)
T2 sequence (looked up): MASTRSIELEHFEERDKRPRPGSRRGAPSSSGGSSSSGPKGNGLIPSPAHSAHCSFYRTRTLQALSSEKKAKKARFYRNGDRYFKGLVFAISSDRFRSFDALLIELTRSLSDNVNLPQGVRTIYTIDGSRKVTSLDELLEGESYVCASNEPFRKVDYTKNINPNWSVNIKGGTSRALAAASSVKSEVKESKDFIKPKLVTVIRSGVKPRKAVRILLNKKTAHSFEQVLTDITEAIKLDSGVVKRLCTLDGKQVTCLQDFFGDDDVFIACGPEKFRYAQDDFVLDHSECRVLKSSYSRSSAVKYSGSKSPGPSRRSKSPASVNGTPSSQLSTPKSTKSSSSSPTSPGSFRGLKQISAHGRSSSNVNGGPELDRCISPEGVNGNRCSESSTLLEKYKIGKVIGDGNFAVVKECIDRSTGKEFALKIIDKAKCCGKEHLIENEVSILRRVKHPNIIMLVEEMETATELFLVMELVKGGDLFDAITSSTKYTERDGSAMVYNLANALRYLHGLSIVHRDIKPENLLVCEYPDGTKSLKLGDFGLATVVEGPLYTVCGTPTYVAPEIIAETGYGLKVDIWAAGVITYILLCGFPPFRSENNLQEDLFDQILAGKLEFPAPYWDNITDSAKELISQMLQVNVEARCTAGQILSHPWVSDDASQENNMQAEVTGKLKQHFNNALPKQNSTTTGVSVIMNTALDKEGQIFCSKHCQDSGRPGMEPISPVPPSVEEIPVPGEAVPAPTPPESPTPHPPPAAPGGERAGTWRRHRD

IRAK1 (h) (human) = IRAK1 (h) (human) (UniProt P51617)
FGFR1(V561M) (h) (human) = FGFR1(V561M) (h) (human) (UniProt P11362)
FGFR1(V561M) (h) (human), sequence (P11362 456-765 V561M limits assumed): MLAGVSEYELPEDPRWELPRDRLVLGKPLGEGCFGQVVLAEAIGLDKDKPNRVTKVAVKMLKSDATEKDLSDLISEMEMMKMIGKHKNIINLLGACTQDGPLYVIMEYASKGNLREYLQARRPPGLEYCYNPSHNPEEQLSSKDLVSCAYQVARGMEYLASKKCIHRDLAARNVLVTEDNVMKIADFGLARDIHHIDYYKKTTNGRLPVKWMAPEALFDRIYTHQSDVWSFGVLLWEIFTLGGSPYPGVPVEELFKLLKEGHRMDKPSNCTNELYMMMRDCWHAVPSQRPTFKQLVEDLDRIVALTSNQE

PRK2 (h) (human) = PRK2 (h) (human) (UniProt Q16513)
VRK2 (h) (human) = VRK2 (h) (human) (UniProt Q86Y07)
VRK2 (h) (human), sequence (Q86Y07 whole entry): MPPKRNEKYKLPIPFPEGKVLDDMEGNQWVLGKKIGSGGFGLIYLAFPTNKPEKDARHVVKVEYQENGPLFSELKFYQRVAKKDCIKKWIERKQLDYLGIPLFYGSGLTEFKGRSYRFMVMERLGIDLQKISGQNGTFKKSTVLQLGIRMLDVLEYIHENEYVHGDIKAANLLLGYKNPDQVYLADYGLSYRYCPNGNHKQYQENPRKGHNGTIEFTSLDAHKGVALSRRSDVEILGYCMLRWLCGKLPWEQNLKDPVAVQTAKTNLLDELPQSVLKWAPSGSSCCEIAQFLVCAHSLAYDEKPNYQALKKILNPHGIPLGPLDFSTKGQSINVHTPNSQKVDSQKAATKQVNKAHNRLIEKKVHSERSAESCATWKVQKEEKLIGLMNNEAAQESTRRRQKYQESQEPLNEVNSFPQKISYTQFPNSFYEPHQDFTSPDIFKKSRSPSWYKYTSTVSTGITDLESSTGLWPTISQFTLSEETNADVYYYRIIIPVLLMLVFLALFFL

FGFR1 (h) (human) = FGFR1 (h) (human) (UniProt P11362)
FGFR1 (h) (human), sequence (P11362 456-765 limits assumed): as the sequence (P11362 456-765 V561M limits assumed) above, with M106V counted along it

SGK (h) (human) = SGK (h) (human) (UniProt O00141)
SGK (h) (human), sequence (O00141 60-431 limits assumed): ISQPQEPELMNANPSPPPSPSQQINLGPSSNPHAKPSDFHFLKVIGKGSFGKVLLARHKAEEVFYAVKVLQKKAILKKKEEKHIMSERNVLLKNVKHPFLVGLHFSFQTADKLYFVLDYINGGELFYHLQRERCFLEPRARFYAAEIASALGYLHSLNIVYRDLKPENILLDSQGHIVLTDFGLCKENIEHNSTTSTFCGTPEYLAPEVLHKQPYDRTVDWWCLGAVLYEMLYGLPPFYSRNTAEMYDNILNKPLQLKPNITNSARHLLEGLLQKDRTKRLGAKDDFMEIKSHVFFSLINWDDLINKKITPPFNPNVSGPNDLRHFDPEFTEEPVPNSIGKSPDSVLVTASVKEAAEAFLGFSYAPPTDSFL

SRPK1 (h) (human) = SRPK1 (h) (human) (UniProt Q96SB4)
PAK3 (h) (human) = PAK3 (h) (human) (UniProt O75914)
CK1δ (h) (human) = CK1δ (h) (human) (UniProt P48730)
[1] = target: Hck (h) activated (human) (UniProt P08631)
EphB3 (h) (human) = EphB3 (h) (human) (UniProt P54753)
EphB3 (h) (human), sequence (P54753 581-998 limits assumed): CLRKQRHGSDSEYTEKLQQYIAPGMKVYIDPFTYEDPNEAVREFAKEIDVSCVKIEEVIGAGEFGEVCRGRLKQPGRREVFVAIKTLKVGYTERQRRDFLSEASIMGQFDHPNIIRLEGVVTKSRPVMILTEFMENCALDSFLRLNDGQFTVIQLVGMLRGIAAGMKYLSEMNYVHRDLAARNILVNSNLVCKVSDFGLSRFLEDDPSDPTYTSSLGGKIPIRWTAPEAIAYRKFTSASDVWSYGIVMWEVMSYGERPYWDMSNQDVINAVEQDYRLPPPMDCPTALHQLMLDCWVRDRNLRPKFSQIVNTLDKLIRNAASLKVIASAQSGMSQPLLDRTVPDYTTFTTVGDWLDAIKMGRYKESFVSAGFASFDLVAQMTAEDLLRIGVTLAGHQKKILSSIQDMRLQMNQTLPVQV

Rsk1 (h) (human) = Rsk1 (h) (human) (UniProt Q15418)
Rsk1 (h) (human), sequence (Q15418 whole entry): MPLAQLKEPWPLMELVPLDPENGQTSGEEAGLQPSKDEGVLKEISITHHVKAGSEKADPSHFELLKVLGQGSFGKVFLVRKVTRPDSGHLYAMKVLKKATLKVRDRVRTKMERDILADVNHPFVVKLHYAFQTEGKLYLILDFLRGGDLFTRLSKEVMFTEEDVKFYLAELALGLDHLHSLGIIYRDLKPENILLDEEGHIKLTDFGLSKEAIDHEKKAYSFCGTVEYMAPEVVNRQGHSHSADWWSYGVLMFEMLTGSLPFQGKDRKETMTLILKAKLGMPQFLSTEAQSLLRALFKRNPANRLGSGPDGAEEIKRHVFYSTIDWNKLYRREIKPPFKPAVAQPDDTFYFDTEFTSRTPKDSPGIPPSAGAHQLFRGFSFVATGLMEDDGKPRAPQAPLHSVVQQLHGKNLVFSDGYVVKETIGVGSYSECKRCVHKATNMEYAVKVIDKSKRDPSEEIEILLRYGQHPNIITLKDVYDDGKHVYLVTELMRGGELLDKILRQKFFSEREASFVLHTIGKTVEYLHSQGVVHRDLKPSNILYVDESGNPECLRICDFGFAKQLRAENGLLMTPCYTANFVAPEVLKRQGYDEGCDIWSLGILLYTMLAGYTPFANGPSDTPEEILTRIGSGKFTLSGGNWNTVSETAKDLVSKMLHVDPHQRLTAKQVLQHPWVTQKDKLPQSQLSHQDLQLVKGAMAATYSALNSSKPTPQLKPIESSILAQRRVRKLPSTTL

Abl (M351T) (h) (human) = Abl (M351T) (h) (human) (UniProt P00519)
Abl (M351T) (h) (human), sequence (P00519 27-1130 M351T limits assumed): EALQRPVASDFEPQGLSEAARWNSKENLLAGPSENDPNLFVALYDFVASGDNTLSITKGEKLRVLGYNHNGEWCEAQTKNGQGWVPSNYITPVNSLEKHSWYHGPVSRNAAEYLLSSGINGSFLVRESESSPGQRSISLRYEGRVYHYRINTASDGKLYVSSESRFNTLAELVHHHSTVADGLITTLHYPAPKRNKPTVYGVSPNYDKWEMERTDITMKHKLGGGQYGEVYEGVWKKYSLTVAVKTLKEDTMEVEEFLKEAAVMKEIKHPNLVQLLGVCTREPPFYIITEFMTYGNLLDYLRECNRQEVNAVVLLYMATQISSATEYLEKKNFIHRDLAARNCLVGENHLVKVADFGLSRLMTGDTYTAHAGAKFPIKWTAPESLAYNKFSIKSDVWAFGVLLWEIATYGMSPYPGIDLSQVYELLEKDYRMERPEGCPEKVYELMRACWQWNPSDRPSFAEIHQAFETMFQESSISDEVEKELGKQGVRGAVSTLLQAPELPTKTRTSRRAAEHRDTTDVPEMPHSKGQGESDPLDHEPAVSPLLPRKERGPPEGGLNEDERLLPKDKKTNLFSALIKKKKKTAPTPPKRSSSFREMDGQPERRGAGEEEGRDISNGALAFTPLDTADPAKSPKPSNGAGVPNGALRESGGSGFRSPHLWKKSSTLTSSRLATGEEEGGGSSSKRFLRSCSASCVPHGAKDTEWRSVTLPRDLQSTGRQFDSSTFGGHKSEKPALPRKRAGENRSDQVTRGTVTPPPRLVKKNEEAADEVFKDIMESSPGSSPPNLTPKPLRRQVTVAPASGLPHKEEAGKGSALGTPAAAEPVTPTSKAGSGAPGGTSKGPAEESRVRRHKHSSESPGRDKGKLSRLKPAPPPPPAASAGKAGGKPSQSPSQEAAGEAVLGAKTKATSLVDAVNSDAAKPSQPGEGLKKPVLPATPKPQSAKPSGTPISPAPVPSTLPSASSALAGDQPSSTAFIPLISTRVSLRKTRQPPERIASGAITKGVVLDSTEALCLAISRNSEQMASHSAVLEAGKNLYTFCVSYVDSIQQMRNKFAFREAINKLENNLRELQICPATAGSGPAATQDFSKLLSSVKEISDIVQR

MLK1 (h) (human) = MLK1 (h) (human) (UniProt P80192)
Pim-2 (h) (human) = Pim-2 (h) (human) (UniProt Q9P1W9)
KDR (h) (human) = KDR (h) (human) (UniProt P35968)
Src(1-530) (h) (human) = Src(1-530) (h) (human) (UniProt P12931)
Syk (h) (human) = Syk (h) (human) (UniProt P43405)

Rsk3 (h) (human), sequence (Q15349 whole entry): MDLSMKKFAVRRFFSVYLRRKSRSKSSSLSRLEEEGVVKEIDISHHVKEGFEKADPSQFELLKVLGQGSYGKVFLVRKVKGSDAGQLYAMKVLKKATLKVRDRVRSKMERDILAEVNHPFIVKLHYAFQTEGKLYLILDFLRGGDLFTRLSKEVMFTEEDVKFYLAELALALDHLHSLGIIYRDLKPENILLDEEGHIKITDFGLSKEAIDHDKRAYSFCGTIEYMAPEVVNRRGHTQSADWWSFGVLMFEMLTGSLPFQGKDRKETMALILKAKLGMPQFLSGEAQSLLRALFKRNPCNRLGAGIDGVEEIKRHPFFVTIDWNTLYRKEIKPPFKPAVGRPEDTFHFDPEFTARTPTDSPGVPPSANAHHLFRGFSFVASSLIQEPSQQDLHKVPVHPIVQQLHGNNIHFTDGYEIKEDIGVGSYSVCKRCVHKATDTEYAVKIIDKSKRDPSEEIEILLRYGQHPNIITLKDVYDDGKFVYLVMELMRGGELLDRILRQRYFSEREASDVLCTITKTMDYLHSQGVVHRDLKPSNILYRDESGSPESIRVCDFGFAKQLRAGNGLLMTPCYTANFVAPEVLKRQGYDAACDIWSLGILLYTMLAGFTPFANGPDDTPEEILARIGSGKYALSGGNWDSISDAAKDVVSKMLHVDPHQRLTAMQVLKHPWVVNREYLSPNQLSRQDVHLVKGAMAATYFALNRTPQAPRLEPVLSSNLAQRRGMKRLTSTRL
Abl(T315I) (h) (human), sequence (P00519 27-1130 T315I limits assumed): as the sequence (P00519 27-1130 M351T limits assumed) above, with T289I, T325M counted along it

- % activity at 100 µM (Rsk3 (h) (human)): 76%
- % activity at 100 µM (MKK6 (h) (human)): 48%
- % activity at 100 µM (PASK (h) (human)): 29%
- % activity at 100 µM (EGFR(T790M) (h) (human)): 100%
- % activity at 100 µM (PKA (h) (human)): 119%
- % activity at 100 µM (Abl(T315I) (h) (human)): 97%
- % activity at 100 µM (SGK3 (h) (human)): 10%
- % activity at 100 µM (AMPKα1 (h) (human)): 71%
- % activity at 100 µM (cKit(D816V) (h) (human)): 60%
- % activity at 100 µM (CaMKIV (h) (human)): 17%
- % activity at 100 µM (DCAMKL2 (h) (human)): 81%
- % activity at 100 µM (IRAK1 (h) (human)): 95%
- % activity at 100 µM (FGFR1(V561M) (h) (human)): 74%
- % activity at 100 µM (PRK2 (h) (human)): 33%
- % activity at 100 µM (VRK2 (h) (human)): 161%
- % activity at 100 µM (FGFR1 (h) (human)): 55%
- % activity at 100 µM (SGK (h) (human)): 48%
- % activity at 100 µM (SRPK1 (h) (human)): 90%
- % activity at 100 µM (PAK3 (h) (human)): 140%
- % activity at 100 µM (CK1δ (h) (human)): 92%
- % activity at 100 µM [1]: 82%
- % activity at 100 µM (EphB3 (h) (human)): 62%
- % activity at 100 µM (Rsk1 (h) (human)): 46%
- % activity at 100 µM (Abl (M351T) (h) (human)): 90%
- % activity at 100 µM (MLK1 (h) (human)): 40%
- % activity at 100 µM (Pim-2 (h) (human)): 76%
- % activity at 100 µM (KDR (h) (human)): 101%
- % activity at 100 µM (Src(1-530) (h) (human)): 23%
- % activity at 100 µM (Syk (h) (human)): 24%
Substance: MMI-0300 (peptide)
